Data from PMC10279758.

Target: Arabidopsis thaliana Receptor-Like Protein 30, GFP-tagged (RLP30-GFP) (Arabidopsis thaliana) (UniProt Q9MA83)
Sequence of UniProt Q9MA83 (Q9MA83 31-786): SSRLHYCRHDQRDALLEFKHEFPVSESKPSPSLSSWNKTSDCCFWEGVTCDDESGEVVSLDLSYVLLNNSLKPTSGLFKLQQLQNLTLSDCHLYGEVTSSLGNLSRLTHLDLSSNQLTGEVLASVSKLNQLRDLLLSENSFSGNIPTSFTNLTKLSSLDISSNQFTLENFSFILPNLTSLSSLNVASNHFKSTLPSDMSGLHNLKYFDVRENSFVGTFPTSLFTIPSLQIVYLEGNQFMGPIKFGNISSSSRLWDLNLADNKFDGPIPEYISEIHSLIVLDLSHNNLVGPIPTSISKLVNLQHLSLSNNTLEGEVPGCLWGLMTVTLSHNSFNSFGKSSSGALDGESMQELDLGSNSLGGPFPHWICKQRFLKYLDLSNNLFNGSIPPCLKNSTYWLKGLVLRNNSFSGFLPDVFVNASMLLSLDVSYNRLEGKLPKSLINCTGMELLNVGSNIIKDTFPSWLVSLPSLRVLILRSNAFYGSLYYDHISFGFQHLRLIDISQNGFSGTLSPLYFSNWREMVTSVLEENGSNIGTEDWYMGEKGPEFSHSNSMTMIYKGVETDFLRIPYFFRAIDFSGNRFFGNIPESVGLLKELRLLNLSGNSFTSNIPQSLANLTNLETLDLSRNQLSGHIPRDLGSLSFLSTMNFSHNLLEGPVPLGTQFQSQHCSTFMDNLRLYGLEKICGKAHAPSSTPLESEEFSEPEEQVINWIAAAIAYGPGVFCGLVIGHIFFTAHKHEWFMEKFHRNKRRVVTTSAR

## SMALL CYSTEINE-RICH PROTEIN FROM S. SCLEROTIORUM, myc-tagged (SCP^Ss-myc) (ligand)
  ethylene production in Arabidopsis Col-0 plants, half-maximal induction (EC50); the protein applied was His-tagged SCP^Ss from P. pastoris, affinity purified via His-Trap columns: 26 nM
